Measurements as given in patent US20250263504A1 (Takeda / Millennium, published 2025).

T1: Factor XIIa (FXIIa) (UniProt P00748 20-372; P00748 373-615, limits assumed)
T1 construct: the description speaks of human FXIIa; also called active Factor XII
T1 sequence (looked up) 1: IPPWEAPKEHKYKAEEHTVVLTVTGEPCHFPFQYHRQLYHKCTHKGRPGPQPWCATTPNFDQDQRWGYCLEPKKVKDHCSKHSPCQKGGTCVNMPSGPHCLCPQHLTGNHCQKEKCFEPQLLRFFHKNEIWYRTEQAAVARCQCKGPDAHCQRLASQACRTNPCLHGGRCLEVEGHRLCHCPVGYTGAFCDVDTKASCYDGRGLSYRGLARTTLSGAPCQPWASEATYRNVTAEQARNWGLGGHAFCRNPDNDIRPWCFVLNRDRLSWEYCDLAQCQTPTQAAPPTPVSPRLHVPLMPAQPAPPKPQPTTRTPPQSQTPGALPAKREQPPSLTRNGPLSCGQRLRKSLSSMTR
T1 sequence (looked up) 2: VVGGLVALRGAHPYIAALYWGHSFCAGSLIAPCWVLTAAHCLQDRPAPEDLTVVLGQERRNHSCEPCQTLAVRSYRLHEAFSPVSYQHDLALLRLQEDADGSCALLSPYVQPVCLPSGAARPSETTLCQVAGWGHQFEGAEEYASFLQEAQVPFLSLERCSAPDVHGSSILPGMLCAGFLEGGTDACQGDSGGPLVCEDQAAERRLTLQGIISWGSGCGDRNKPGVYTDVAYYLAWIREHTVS

B1: 620I-X0138-A12 (bispecific antibody)
heavy: not shown
light: DIQMTQSPSTLSASVGDRVTITCRASQSISSWLAWYQQKPGKAPKLLIYKASTLESGVPSRFSGSGSGTEFTLTISSLQPDDFATYYCQQYNTYWTFGQGTKVEIKRTVAAPSVFIFPPSDEQLKSGTASVVCLLNNFYPREAKVQWKVDNALQSGNSQESVTEQDSKDSTYSLSSTLTLSKADYEKHKVYACEVTHQGLSSPVTKSFNRGEC
notes: also called 620I-X138-A12
B2: 620I-X0138-B06 (bispecific antibody)
heavy: not shown
light: DIQMTQSPSTLSASVGDRVTITCRASQSISSWLAWYQQKPGKAPKLLIYKASTLESGVPSRFSGSGSGTEFTLTISSLQPDDFATYYCQQYNTYWTFGQGTKVEIKRTVAAPSVFIFPPSDEQLKSGTASVVCLLNNFYPREAKVQWKVDNALQSGNSQESVTEQDSKDSTYSLSSTLTLSKADYEKHKVYACEVTHQGLSSPVTKSFNRGEC
notes: also called 620I-X138-B06
B3: 620I-X0138-B07 (bispecific antibody)
heavy: not shown
light: DIQMTQSPSTLSASVGDRVTITCRASQSISSWLAWYQQKPGKAPKLLIYKASTLESGVPSRFSGSGSGTEFTLTISSLQPDDFATYYCQQYNTYWTFGQGTKVEIKRTVAAPSVFIFPPSDEQLKSGTASVVCLLNNFYPREAKVQWKVDNALQSGNSQESVTEQDSKDSTYSLSSTLTLSKADYEKHKVYACEVTHQGLSSPVTKSFNRGEC
notes: also called 620I-X138-B07
B4: 620I-X0138-B10 (bispecific antibody)
heavy: not shown
light: DIQMTQSPSTLSASVGDRVTITCRASQSISSWLAWYQQKPGKAPKLLIYKASTLESGVPSRFSGSGSGTEFTLTISSLQPDDFATYYCQQYNTYWTFGQGTKVEIKRTVAAPSVFIFPPSDEQLKSGTASVVCLLNNFYPREAKVQWKVDNALQSGNSQESVTEQDSKDSTYSLSSTLTLSKADYEKHKVYACEVTHQGLSSPVTKSFNRGEC
notes: also called 620I-X138-B10
B5: 620I-X0138-C07 (bispecific antibody)
heavy: not shown
light: DIQMTQSPSTLSASVGDRVTITCRASQSISSWLAWYQQKPGKAPKLLIYKASTLESGVPSRFSGSGSGTEFTLTISSLQPDDFATYYCQQYNTYWTFGQGTKVEIKRTVAAPSVFIFPPSDEQLKSGTASVVCLLNNFYPREAKVQWKVDNALQSGNSQESVTEQDSKDSTYSLSSTLTLSKADYEKHKVYACEVTHQGLSSPVTKSFNRGEC
notes: also called 620I-X138-C07
B6: 620I-X0138-C12 (bispecific antibody)
heavy: not shown
light: DIQMTQSPSTLSASVGDRVTITCRASQSISSWLAWYQQKPGKAPKLLIYKASTLESGVPSRFSGSGSGTEFTLTISSLQPDDFATYYCQQYNTYWTFGQGTKVEIKRTVAAPSVFIFPPSDEQLKSGTASVVCLLNNFYPREAKVQWKVDNALQSGNSQESVTEQDSKDSTYSLSSTLTLSKADYEKHKVYACEVTHQGLSSPVTKSFNRGEC
notes: also called 620I-X138-C12
B7: 620I-X0138-D03 (bispecific antibody)
heavy: not shown
light: DIQMTQSPSTLSASVGDRVTITCRASQSISSWLAWYQQKPGKAPKLLIYKASTLESGVPSRFSGSGSGTEFTLTISSLQPDDFATYYCQQYNTYWTFGQGTKVEIKRTVAAPSVFIFPPSDEQLKSGTASVVCLLNNFYPREAKVQWKVDNALQSGNSQESVTEQDSKDSTYSLSSTLTLSKADYEKHKVYACEVTHQGLSSPVTKSFNRGEC
notes: also called 620I-X138-D03
B8: 620I-X0138-D04 (bispecific antibody)
heavy: not shown
light: DIQMTQSPSTLSASVGDRVTITCRASQSISSWLAWYQQKPGKAPKLLIYKASTLESGVPSRFSGSGSGTEFTLTISSLQPDDFATYYCQQYNTYWTFGQGTKVEIKRTVAAPSVFIFPPSDEQLKSGTASVVCLLNNFYPREAKVQWKVDNALQSGNSQESVTEQDSKDSTYSLSSTLTLSKADYEKHKVYACEVTHQGLSSPVTKSFNRGEC
notes: also called 620I-X138-D04
B9: 620I-X0138-D05 (bispecific antibody)
heavy: not shown
light: DIQMTQSPSTLSASVGDRVTITCRASQSISSWLAWYQQKPGKAPKLLIYKASTLESGVPSRFSGSGSGTEFTLTISSLQPDDFATYYCQQYNTYWTFGQGTKVEIKRTVAAPSVFIFPPSDEQLKSGTASVVCLLNNFYPREAKVQWKVDNALQSGNSQESVTEQDSKDSTYSLSSTLTLSKADYEKHKVYACEVTHQGLSSPVTKSFNRGEC
notes: also called 620I-X138-D05
B10: 620I-X0138-D06 (bispecific antibody)
heavy: not shown
light: DIQMTQSPSTLSASVGDRVTITCRASQSISSWLAWYQQKPGKAPKLLIYKASTLESGVPSRFSGSGSGTEFTLTISSLQPDDFATYYCQQYNTYWTFGQGTKVEIKRTVAAPSVFIFPPSDEQLKSGTASVVCLLNNFYPREAKVQWKVDNALQSGNSQESVTEQDSKDSTYSLSSTLTLSKADYEKHKVYACEVTHQGLSSPVTKSFNRGEC
notes: also called 620I-X138-D06
B11: 620I-X0138-D11 (bispecific antibody)
heavy: not shown
light: DIQMTQSPSTLSASVGDRVTITCRASQSISSWLAWYQQKPGKAPKLLIYKASTLESGVPSRFSGSGSGTEFTLTISSLQPDDFATYYCQQYNTYWTFGQGTKVEIKRTVAAPSVFIFPPSDEQLKSGTASVVCLLNNFYPREAKVQWKVDNALQSGNSQESVTEQDSKDSTYSLSSTLTLSKADYEKHKVYACEVTHQGLSSPVTKSFNRGEC
notes: also called 620I-X138-D11
B12: 620I-X0138-E03 (bispecific antibody)
heavy: not shown
light: DIQMTQSPSTLSASVGDRVTITCRASQSISSWLAWYQQKPGKAPKLLIYKASTLESGVPSRFSGSGSGTEFTLTISSLQPDDFATYYCQQYNTYWTFGQGTKVEIKRTVAAPSVFIFPPSDEQLKSGTASVVCLLNNFYPREAKVQWKVDNALQSGNSQESVTEQDSKDSTYSLSSTLTLSKADYEKHKVYACEVTHQGLSSPVTKSFNRGEC
notes: also called 620I-X138-E03
B13: 620I-X0138-E05 (bispecific antibody)
heavy: not shown
light: DIQMTQSPSTLSASVGDRVTITCRASQSISSWLAWYQQKPGKAPKLLIYKASTLESGVPSRFSGSGSGTEFTLTISSLQPDDFATYYCQQYNTYWTFGQGTKVEIKRTVAAPSVFIFPPSDEQLKSGTASVVCLLNNFYPREAKVQWKVDNALQSGNSQESVTEQDSKDSTYSLSSTLTLSKADYEKHKVYACEVTHQGLSSPVTKSFNRGEC
notes: also called 620I-X138-E05
B14: 620I-X0138-F02 (bispecific antibody)
heavy: not shown
light: DIQMTQSPSTLSASVGDRVTITCRASQSISSWLAWYQQKPGKAPKLLIYKASTLESGVPSRFSGSGSGTEFTLTISSLQPDDFATYYCQQYNTYWTFGQGTKVEIKRTVAAPSVFIFPPSDEQLKSGTASVVCLLNNFYPREAKVQWKVDNALQSGNSQESVTEQDSKDSTYSLSSTLTLSKADYEKHKVYACEVTHQGLSSPVTKSFNRGEC
notes: also called 620I-X138-F02
B15: 620I-X0138-F05 (bispecific antibody)
heavy: not shown
light: DIQMTQSPSTLSASVGDRVTITCRASQSISSWLAWYQQKPGKAPKLLIYKASTLESGVPSRFSGSGSGTEFTLTISSLQPDDFATYYCQQYNTYWTFGQGTKVEIKRTVAAPSVFIFPPSDEQLKSGTASVVCLLNNFYPREAKVQWKVDNALQSGNSQESVTEQDSKDSTYSLSSTLTLSKADYEKHKVYACEVTHQGLSSPVTKSFNRGEC
notes: also called 620I-X138-F05
B16: 620I-X0138-G12 (bispecific antibody)
heavy: not shown
light: DIQMTQSPSTLSASVGDRVTITCRASQSISSWLAWYQQKPGKAPKLLIYKASTLESGVPSRFSGSGSGTEFTLTISSLQPDDFATYYCQQYNTYWTFGQGTKVEIKRTVAAPSVFIFPPSDEQLKSGTASVVCLLNNFYPREAKVQWKVDNALQSGNSQESVTEQDSKDSTYSLSSTLTLSKADYEKHKVYACEVTHQGLSSPVTKSFNRGEC
notes: also called 620I-X138-G12
B17: 620I-X0139-A01 (bispecific antibody)
heavy: not shown
light: DIQMTQSPSTLSASVGDRVTITCRASQSISSWLAWYQQKPGKAPKLLIYKASTLESGVPSRFSGSGSGTEFTLTISSLQPDDFATYYCQQYNTYWTFGQGTKVEIKRTVAAPSVFIFPPSDEQLKSGTASVVCLLNNFYPREAKVQWKVDNALQSGNSQESVTEQDSKDSTYSLSSTLTLSKADYEKHKVYACEVTHQGLSSPVTKSFNRGEC
notes: also called 620I-X139-A01
B18: 620I-X0139-A11 (bispecific antibody)
heavy: not shown
light: DIQMTQSPSTLSASVGDRVTITCRASQSISSWLAWYQQKPGKAPKLLIYKASTLESGVPSRFSGSGSGTEFTLTISSLQPDDFATYYCQQYNTYWTFGQGTKVEIKRTVAAPSVFIFPPSDEQLKSGTASVVCLLNNFYPREAKVQWKVDNALQSGNSQESVTEQDSKDSTYSLSSTLTLSKADYEKHKVYACEVTHQGLSSPVTKSFNRGEC
notes: also called 620I-X139-A11
B19: 620I-X0139-A12 (bispecific antibody)
heavy: not shown
light: DIQMTQSPSTLSASVGDRVTITCRASQSISSWLAWYQQKPGKAPKLLIYKASTLESGVPSRFSGSGSGTEFTLTISSLQPDDFATYYCQQYNTYWTFGQGTKVEIKRTVAAPSVFIFPPSDEQLKSGTASVVCLLNNFYPREAKVQWKVDNALQSGNSQESVTEQDSKDSTYSLSSTLTLSKADYEKHKVYACEVTHQGLSSPVTKSFNRGEC
notes: also called 620I-X139-A12
B20: 620I-X0139-B10 (bispecific antibody)
heavy: not shown
light: DIQMTQSPSTLSASVGDRVTITCRASQSISSWLAWYQQKPGKAPKLLIYKASTLESGVPSRFSGSGSGTEFTLTISSLQPDDFATYYCQQYNTYWTFGQGTKVEIKRTVAAPSVFIFPPSDEQLKSGTASVVCLLNNFYPREAKVQWKVDNALQSGNSQESVTEQDSKDSTYSLSSTLTLSKADYEKHKVYACEVTHQGLSSPVTKSFNRGEC
notes: also called 620I-X139-B10

Legend:
plasma kallikrein (pKal) = molecular target: T2, plasma kallikrein (pKal) (UniProt P03952 20-390; P03952 391-638, limits assumed); test: enzyme inhibition, corrected Ki,app
T2 construct: the description speaks of human pKal; also called active pKal
T2 sequence (P03952 20-390 limits assumed, form in doubt, chain 1 of 2): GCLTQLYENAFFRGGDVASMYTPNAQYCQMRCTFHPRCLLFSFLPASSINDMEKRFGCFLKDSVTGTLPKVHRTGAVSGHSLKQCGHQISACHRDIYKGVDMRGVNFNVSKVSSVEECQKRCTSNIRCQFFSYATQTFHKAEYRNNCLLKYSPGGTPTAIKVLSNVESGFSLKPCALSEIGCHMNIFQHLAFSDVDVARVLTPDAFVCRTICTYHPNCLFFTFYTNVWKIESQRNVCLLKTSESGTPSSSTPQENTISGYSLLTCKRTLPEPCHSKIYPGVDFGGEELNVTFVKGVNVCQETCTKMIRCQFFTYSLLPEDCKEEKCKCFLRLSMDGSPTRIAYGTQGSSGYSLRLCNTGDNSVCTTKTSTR
T2 sequence (P03952 391-638 limits assumed, form in doubt, chain 2 of 2): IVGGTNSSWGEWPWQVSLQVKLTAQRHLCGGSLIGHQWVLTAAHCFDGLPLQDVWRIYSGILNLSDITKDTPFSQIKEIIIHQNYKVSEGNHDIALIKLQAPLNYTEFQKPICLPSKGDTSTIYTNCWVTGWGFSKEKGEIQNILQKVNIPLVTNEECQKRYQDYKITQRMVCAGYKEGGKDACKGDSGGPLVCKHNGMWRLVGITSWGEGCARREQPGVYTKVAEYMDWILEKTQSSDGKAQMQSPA

Factor XIIa (FXIIa) = molecular target: T1, Factor XIIa (FXIIa); test: enzyme inhibition, corrected Ki,app

Binder | Ki (plasma kallikrein (pKal)) | Ki (Factor XIIa (FXIIa))
B1 | 0.405 nM | 1.93 nM
B2 | 0.33 nM | 0.405 nM
B3 | 0.246 nM | 0.135 nM
B4 | 0.075 nM | 0.058 nM
B5 | 0.196 nM | 0.314 nM
B6 | 0.267 nM | 0.697 nM
B7 | 0.079 nM | 0.344 nM
B8 | 0.215 nM | 0.079 nM
B9 | 0.519 nM | 0.139 nM
B10 | 0.199 nM | 0.132 nM
B11 | 0.178 nM | 0.443 nM
B12 | 0.178 nM | 0.122 nM
B13 | 0.186 nM | 0.245 nM
B14 | 0.464 nM | 0.794 nM
B15 | 0.214 nM | 0.147 nM
B16 | 0.186 nM | 0.766 nM
B17 | 0.146 nM | 0.053 nM
B18 | 0.235 nM | 3.83 nM
B19 | 2.05 nM | 4.08 nM
B20 | 0.247 nM | 0.189 nM
